The data set can be described thus: label from the status in PepcDB records.

Turning to “MIKAVKKRKEGNMLKDLNTNQGLKPWRVESVFYCIVIVLIFIGAFKIAEAVFKPLAISIVLGFLVYPVYTFLARFKVPKFLIVFIIFFLLFSFSYLIFSFVYYSVTVLMKQLPYYQNQLAFIMKDVLSRYKVDSSVINDVNFSGYIYPFLTRAYNEIIGFTSSLVVVFLLLYFLLSEIHVFEMKLDKAFKKPISTRFIGALDTINNQIGKYLGIKILVSCLTGILVFIGLTLFGQDFPLVWAVLSFVFNFIPSIGSILAVFFIVITSLIQFYPNLNIVLYVFIYNTSIQMLIGNILEPKMQGKRLDISPFLLLCFLFFWGWLWGIVGLLISYPFTVIVKVIVDNVSWLKSFSVFLGGSEILSNISHISSKDKEI”, the protein production result was “failed”.

Regarding “MIKDCANRYFLSFVVEVEPNTTIANNQSIGIDLGLKTFAVMSNGEKALSPDYSKHDRKIRKLQKKLARQQKDSKRRNNTRVKIAKLHNQIADTRKDFLHKLSTKIINDNQVIVLEDLNVSGMVKNSRLSRVISLQGWREFRNLCEAKSEKFSRDFRVIDRWQPTSQICSCCGFRWGKIDLSVRSILCLSCGTEQERDENASRNIEMVGMGHRHDLKRAGSDCQTTSVASYCELSRITEVESR”, the protein production result is listed as “failed”.

In the case of “MIKETVFKSFDTPSALEQQLASKIASQLQEAVDARGKASLVVSGGSTPLKLFQLLSMKSIDWSDVYITLADERWVEADADASNERLVREHLLQNRASNAKFRGLKNMFSTAEAGADMAAESLSNFPRPFDVVVLGMGNDGHTCSWFPCSAELENALTTQALCVATNPTTAPHGRITLSKSAILNSRQIYLHLVGEQKLSVYRQALESDDVHAMPIRAVLAQRKTPVDVFWSA”, the protein production result is listed as “not failed”.

Regarding “MIKEWATVVSWQNGQAVVSCDVKASCSSCASRAGCGSRVLNKLGPQTTHTIVVPSAEPLAPGQKVELGIAEKSLLGSALLVYMSPLAGLFLCAALFQMLFGSDLAALSGAVLGGVGGFLVARGYSRKLAERDAWQPVILNVALPPDLVRVETTSIETRQ”, the protein production result is recorded as “failed”.

As to “MIKGTGHMIVNIANDRGMSIDSIRKTIKESVLIAYKKYFGSNENAFIKFDDDTGDLSVYAKKKIVKEVKDSLLEILEKDISKENIVEGDYAYIEINPKVFDRLSIQVAKQRTKNDLQGIEDNEILSEFKSKLNKVVIGYVQQNRNGDLYVNLGLEHHHHHH”, the protein production entry is reported as “not failed”.

As for “MIKHPLKILFMHGLDSSRESTKFHAIESTNKFCITIDYRNLSYNTVADFYQNTIETIQPDLLIGHNLGGYWALKLSSQYHLAAIVANPSLAPLFRDDYPSLTSKELDTDSPKIAYIELGDESLNMYDIQNVLEDYMIVDSIEGGHHRLENPSKLNILIDHIQSEYFSHTIR”, the protein production result is “failed”.

For “MIKIVTDNFLYEKEKVLALRYMYDSAKKPGITIITVTNKQKYIKNIMDNFRRCLYPKKEFIIILNDTKLQTSLYKNYFSKTKNLKLFKVDSSYSLGECLNLAISKSNYNYIAKMDDDDYYGSHYILDSMNAFNYTDASIIGKATHFIYFEDRTLLNLWCQGNENTYATSVAGATFVMKKSIFNKVKFNSLNNGEDIDLLSQCNNLGIKIYSCSKFNYVYNRHASPDNHSWKISNDLLVKRSIKLCITKSYKRIVHILEHHHHHH”, the protein production result is listed as “failed”.

Turning to “MIKLIATDIDGTLVKDGSLLIDPEYMSVIDRLIDKGIIFVVCSGRQFSSEFKLFAPIKHKLLYITDGGTVVRTPKEILKTYPMDEDIWKGMCRMVRDELPACDYFAATPDFCFAEDGGSPIFHLLRDSYGFEMREVDDITRLDRNDIIKFTVFHPDKCEELCTPVFIPAWNKKAHLAAAGKEWVDCNAKGVSKWTALSYLIDRFDLLPDEVCCFGDNLNDIEMLQNAGISYAVSNARQEVIAAAKHTCAPYWENGVLSVLKSFL”, the protein production entry is given as “not failed”.

Regarding “MIKSILDYLLTLHPVLLGLLGSTFTWFTTAFGAAAVFFFRKVDNKIMDAMLGFSAGIMIAASFFSLIQPAIERAEELGYITWVPAVFGFLVGAFFIYIVDVFVPDLDKLTFIDEDLTKHGKKDFLLFTAVTLHNFPEGLAVGVAFGALASNPDIQTLVGAMLLTLGIGIQNIPEGAAISLPLRRGNVALAKCFNYGQMSGLVEIVGGLMGAYAVYSFTRILPFALAFSAGAMIYVSIEQLIPEAKRKDIDNKVPSIFGVIGFTLMMFLDVSLG”, the protein production entry is “failed”.

Regarding “MILELQNAILEMIAKGEPLAATIEQLCLKVEAAVPGIIASVLTFDGSRLHTLAGPSLPPDYSAAVDNLEAGPLAGSCGAAAYFGEAVVVTDIETDPRWQDFKSLVLPLGLKACWSSPIKRGERVIGSFAFYYRDHRGPKALERDLVEACVHLCTIAIDREERVMERQRLTYSDALTGLSNRARFNQLLAEDLPRSGRAWGILLVDIDNLKLVNDTFGHAAGDALIQVVADRVATTAGSQNTFRLGGDEFAVIVSDDKDLDLNARATDILKALSSPSTCDGHVVFPAATIGGALAETETNPDQTRQNADLALYHAKEHNRGRYVQHYPGLGTALTRRFRAVRDVGVALEDDRIDAHYQPILRLDTREIVGFEALCRMTTPSGEIIAAAHFHEATKDAHIAAELTQRMLLRVARDIRSWLARGLPLQHVGINLSAADFRGGNLQDRLCRIFGEAEVPLKHIILEVTESVYLGQRDYVVADEIKALRSKGLRVALDDFGTGYASLTHLLTVPVDIIKIDKSFIDRMVPGDAGTFIVEGLIGIADKLGIRVVAEGIETELQAVQLSQLGCKLGQGYLFSKAVDRTVAAAILEQHGQRLDQDKTRAGAL”, the protein production entry is recorded as “failed”.

On to “MILFSPVARDSAAGQAAALRAPVSLQDDTLKIFGFDDQSVGQPLSGGTDILACLTLFNEPAEAVAGTLAFLAANQDMLASRNGPIQRLEVAIVLDGRDRVHPETEALFNRLGFDLDWGCDPEAAGIGQHGADEAQVRVQTRLIPVDLLTGVSGNPLRVHLAVKDRNRGKLDSHAFFFRSLAERLQPDFVLQIDAGSRPVADCLPALLAQMEREPDCAALATNIVMEDAALTDWLQSWQQADFLWQKLSDWPIGNGLGYLEVVPGQASLLRMSALRRGANGDPLAAYLRGLSRPKSLMEANLFLAEDRIIGAEIVKSHPACTIRYHHDANLVTDGCATVGELLRQRRRWTNSTLVARLVAIGSLADLLWHGRLPPARWCSMALALAWTLLQLLEQWFIPASLALLVSLTSGFWQDEAKNGVAGQGLAWGMATGVLLFWLYCLASMKGREGERSLSRRLHGGLHGLGLGILLACTVLGFAICLVEVGPVIQGAILTVALILGMAVWHHSSRGMSDLLRVFVLYIPSAPVASFYLLSYALANFHDVSWGTKGLVGDIKAVIPAGWRRMRLRLLILWVVSNTALVWLVMGVVPGGAISVLHYACLPVVGQIAIASLLLLSASCRKPVSPSPEVTVRAGSGPHLHR”, for which the protein production result is “failed”.

Regarding “MILIRYLIKEVFKSQIAILLILLLIFFSQQFVRVLGAAANGNVPADLVFSLLGLGMPTMAQLMLPLCLFIAILLTFGRLYAESEITVMRACGVGQRILVKVALIMSLLTAGIAAYNALWLSPWAIQKQVNMVEDAKANPTVGVLSSGQFISTNNNNVVLFIDKIKDNQIRNVYLFQMTPQKQTKPSVITAEKGELIALPNGDQVLNLKNTKRVEGTSALPDFRITHFDEYHAYLGYQSAENTNDEVAELTLSQLIDLDSSSAKAELHWRITLILAVPLMALIAVPLSRVNPRQGRFAKILPALLLYLIYFLLQSSFKSAGSAGKLEAELLMPLVNIGFFLLAVVLNSWDSEIMYKFRYLFSKKGSAKDDKYP”, the protein production result is recorded as “failed”.

For “MILLEGSYREMGRQYGGLMKTELLSEYAMLTKTLEDRGYSLDYLRWYASAGTQFQPERMKEITRGMAETTGLSEADLSILYYGPALYISMPAGCSYLAVWDTYTTDGSVVLSRNWDLPDLLDPFNPYYVLAVCRPTDGSNGVATFGPAGSRPETLMNSAGLFIADDNSGLAPVGQDDRPDLISEFFRLMLDYSDLDGLKTGVLTTRPDVAWIVDVGGPDGAYVFEVGLNETKVRIGDGVVAAANHFVDPSWDLTTPPGEHSLTRYANLLSQAEAAKGSIDAEEMMQIRDVLMTDDGATFRHSELFGYPYSSNHQVVFVPATRTLWMKVIDLDWQKVELAPLFAM”, the protein production result is recorded as “failed”.

As for “MILLTYLIGILIGLSLTAPPGPVNSVISTESMKSKAHGVSVGAGAMTADLVFFVIVFRFGAFIPVLALHALYLAGAVLLLYISYSVLKSKISRRTRKGNYLVGLTMGITNPFQILWWMTVGLFFIRYFHIASIAGLFTGIIIWILSFPFVMNKYARRFERYVKIFSFAVLFSFAIYLLYSGVVYFLR”, the protein production result is recorded as “failed”.

“MILLVPILIITLMYFMFENVPHRPGTPSGFNTACLVLLGLFPLFVMFVITAITMQRERASGTLERILTTPLRRLDLLAGYGTAFSIAAAAQATLACIVAFWFLGFDTAGSPVWVFAIAIVNAVLGVGLGLLCSAFARTEFQAVQFIPLVMVPQLLLAGIIVPRALMPTWLEWISNVMPASYALEALQQVGAHPELTGIAVRDVVVVLSFAVASLCLAAVTLRRRTS”: the protein production result was “failed”.

On to “MILLYLHIYEQKGSGTLNPVAFTLFGLEIRWYGILIATGVILGLFMAYSNSKLREIEYDSVLDIILISLPIGIIGARLYYVIFQFKSYNGNIIDMINIRNGGLAIHGGLIFGCLAAYIYSRYKKLSFLKLMDIAAPSIILAQALGRWGNFFNGEAHGGPVTYSFIEKFPKFIQKGMTIDGMYYNPTFLYESTWDFVTFIILMLLIRKCKNKGVVFFGYVGLYSLGRFFIEGMRTDSLMLGPIRVAQLVSILGMLISLGFITFSYVKTKRISK”, for which the protein production entry was “failed”.

Turning to “MILPWLILIPFIGGLLCWLGERFGSTLPRWIALLTMTLELALGLWLWATGNFGYAPVPGADPTWALEFHHPWITRFGIDVHLALDGLSLLMILLTGLLGVLSVLCSWKEIQRKVGFFHLNLMWILGGVVGVFLAIDLFMFFFFWEMMLVPMYFLIALWGHSSSDGKKTRIYAATKFFIFTQASGLIMLVAILGLVLVHFNQTGVITFAYADLLKTKLAPGTEYILMLGFFIAFAVKLPVVPLHSWLPDAHAQAPTAGSVDLAGILLKTAAYGLLRFALPLFPNASAEFAPIAMALGLVGIFYGAFLAFAQTDIKRLIAFSSVSHMGFVLIGIYSGSQQALQGVLIQMIAHGLSAAALFILSGQLYERLHTRDMREMGGLWSRIAYIPAISLFFAAASLGLPGTGNFVGEFLILLGSFASAPWITAIATSGLVFGSVYSLIMIHRAYFGPAKSDEVLKGMDGREMIMVLGLAVLLVVLGVFPQPFLDTSAATMHGVQQWLGTAFTQLASAR”, the protein production result is “not failed”.

Consider “MILRSWARGVTLATICMFSLSSGVILAKNNRPTPLPTYQYPDVYNNYLQPVATAIDYHSGMVYLFNYENDKLIIVDPTSLSGWPGNVPLQHTLVFPEGDKIFITSDNTEEHAAYIIILKVNDINWDAGTVSLAVETVVAADNPGTPTEFPFVEPVNNVQAIPNWLVGRGTTQIHGPTILPYSDFVYLTELTSDRIRVINRKTNEFVSGVDPIAIPGYTEQTHGINFNRSGTIGLGTGYFFDNSVIDVYKPNRETGELQTIGQIRLGDEKRHAAFTHFVYWLDERYAVTASMQFDKTSLTPTTTKKIIPPSVWLLDTLEGTATKILDHTNHANGKGIFRSPSDIAVVNGKLYIAEEDSLDYTFANDGYISVFDLTDRYKPRFLKRLKPGRELPTGYAVAHTISPTPDNRYLIVASWVSGYVLKIDTETDTVVKIWGPNDGLIKPHGIYTAGGLR”, for which the protein production entry is “failed”.

Consider “MILSIDSNDANTAPLHKKTISSLSGAVESMMKKLEDVGVLVARILMPILFITAGWGKITGYAGTQQYMEAMGVPGFMLPLVILLEFGGGLAILFGFLTRTTALFTAGFTLLTAFLFHSNFAEGVNSLMFMKNLTISGGFLLLAITGPGAYSIDRLLNKKW”, for which the protein production result is reported as “failed”.

As for “MILSNYPLRDRKDSTMGSKTKIVVIRCKELIAGIILSVIALAILALIVISLMNRNTHDTTPPSGRYTAGVYSSSVILNGNPVDIRVTVDEDNINNIEMVNISDSVTTMYPLIQNSFEEIKSSVIANGGVEGVTYSSENKYTSVMILKAIENALDKCRTY”, the protein production entry is “failed”.

The record behind these values is a protein production outcome set (Wang et al. 2014).
